# Changes are numbered by the printed parent chain. Ends that are not written are not given here. * marks the point of attachment. Myristoyl = CCCCCCCCCCCCCC(=O)*
# Experiments:
# AR protein [1] = biological target: T1, AR protein (Homo sapiens, UniProt P10275, T878A); assay: AR protein level by western blot in C4-2B cells; type: cell-based; details: 10 micro-M
# T1 construct: C4-2B cells were treated with peptides (10 micro-M) for 24 h as indicated, and AR protein levels were assessed by western blots; endogenous in cells; host or cells: C4-2B
# T1 sequence (P10275 1-920 T878A): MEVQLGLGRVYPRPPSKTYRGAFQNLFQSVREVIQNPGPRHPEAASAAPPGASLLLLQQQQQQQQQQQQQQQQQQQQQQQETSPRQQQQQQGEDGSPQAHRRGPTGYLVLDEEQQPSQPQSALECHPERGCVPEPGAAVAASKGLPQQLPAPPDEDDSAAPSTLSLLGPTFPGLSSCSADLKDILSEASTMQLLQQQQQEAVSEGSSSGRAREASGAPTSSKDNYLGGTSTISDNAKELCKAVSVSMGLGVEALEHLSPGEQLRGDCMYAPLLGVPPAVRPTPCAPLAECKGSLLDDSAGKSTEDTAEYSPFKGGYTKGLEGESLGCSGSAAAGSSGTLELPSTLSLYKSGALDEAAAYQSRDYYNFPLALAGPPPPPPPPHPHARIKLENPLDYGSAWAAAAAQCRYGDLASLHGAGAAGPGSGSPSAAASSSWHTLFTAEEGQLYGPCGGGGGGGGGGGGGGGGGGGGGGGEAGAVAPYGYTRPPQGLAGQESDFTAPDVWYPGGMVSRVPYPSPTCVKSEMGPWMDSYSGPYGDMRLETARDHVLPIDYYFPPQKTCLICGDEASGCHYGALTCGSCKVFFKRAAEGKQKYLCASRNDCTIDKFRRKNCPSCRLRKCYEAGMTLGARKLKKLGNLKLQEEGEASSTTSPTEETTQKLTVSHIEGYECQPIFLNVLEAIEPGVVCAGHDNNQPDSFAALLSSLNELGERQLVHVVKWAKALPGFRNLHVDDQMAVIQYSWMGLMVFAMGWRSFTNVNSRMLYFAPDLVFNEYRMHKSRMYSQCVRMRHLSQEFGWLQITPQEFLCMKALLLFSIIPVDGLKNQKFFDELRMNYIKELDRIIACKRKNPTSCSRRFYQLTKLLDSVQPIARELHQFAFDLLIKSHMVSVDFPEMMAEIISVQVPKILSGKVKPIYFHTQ
# Experimental: (§1) A. C4-2B cells were treated with peptides (10 micro-M) for 24 h as indicated, and AR protein levels were assessed by western blots. B. C4-2B cells were treated with peptides and harvested for western blot assay with an anti-PARP antibody. Actin blot served as a protein loading control. C. Flow cytometry analysis of subG1/GO cell cycle population in C4-2B cells after peptide treatment (10 micro-M) in 2% charcoal-stripped FBS for 24 h. Data represents two experiments. The asterisk indicates a significant difference compared to the DSMO control (p<0.05, Student t-test).
# A. Peptide analogs were synthesized as listed in the top panel. The myristylation sequence was conjugated to the N-terminal of the peptide for penetrating the plasma membrane. B. Prostate cancer C4-2B cells were treated with the agents at a concentration of 10 micro-M for 48 h. Cells were harvested for western blot assay with AR antibody (clone PG21). The Actin blot served as a protein loading control. […]
# We further characterized the ARi14 peptide for its core sequence of action. The ARi14 peptide was chopped into two fragments, the 7-mer ARi7 peptide (EAAAYQS) and 8-mer ARi8 peptide ([…]), and their AR degradation inducing ability was compared to the original 14-mer peptide (FIG. 3). These peptides were synthesized with an N-terminal myristylation signal to facilitate cellular uptake. […]
# C4-2B cells [2] = assay: Apoptotic cell death by PARP cleavage western blot in C4-2B cells; type: cell-based; details: N-terminal myristylated peptides
# Experimental: as §1
# (§2) We further characterized the ARi14 peptide for its core sequence of action. The ARi14 peptide was chopped into two fragments, the 7-mer ARi7 peptide (EAAAYQS) and 8-mer ARi8 peptide ([…]), and their AR degradation inducing ability was compared to the original 14-mer peptide (FIG. 3). These peptides were synthesized with an N-terminal myristylation signal to facilitate cellular uptake.
# C4-2B cells [3] = assay: Flow cytometry analysis of subG1/GO cell cycle population in C4-2B cells; type: cell-based; details: Enzalutamide-resistant C4-2B cells, 10 micro-M, 24 h, 2% charcoal-stripped FBS
# Experimental: as §1, §2
# AR protein [4] = biological target: T2, AR protein (Homo sapiens, UniProt P10275); assay: AR protein level by western blot in LAPC-4 cells; type: cell-based; details: 10 micro-M, 24 h, 2% charcoal-stripped FBS
# T2 sequence (P10275 1-920): T1 sequence (P10275 1-920 T878A) with A878T
# Experimental: (§3) A. ARi14 peptide was fused with the KDM4A CPP sequence via a short link (KDM4A-ARi14). This fused peptide was labeled with FITC fluorescent dye. B. LAPC-4 cells were treated with the solvent, or the peptides as indicated at 10 micro-M in 2% charcoal-striped FBS-supplied media for 24 h. Cellular proteins were subjected to a western blot with an anti-AR antibody (clone PG21). Actin blot served as a protein loading control. C. Microscopic images were shown for cell viability. Note: white arrows indicate a cluster of dying cells loaded with fluorescent-labeled peptides.
# (§4) To achieve a better intracellular distribution of the peptide, a cellular penetrating peptide (CPP) derived from the KDM4A protein was fused to the N-terminal of the ARil4 peptide via a short link sequence GGGS (FIG. 2A).
# LAPC-4 cells = assay: Cell viability / cell death by microscopic images in LAPC-4 cells; type: cell-based; details: 10 micro-M, 24 h
# Experimental: as §3, §4
# AR protein [5] = biological target: T2, AR protein; details: reported in the literature [3]; cited from earlier work
# [6] = N-terminal myristylated peptides, 24 h
compound,measurement,setting,value
"SRDYYNFP [ARi8, 8-mer fragment of ARi14, synthesized with an N-terminal myristylation signal]",AR reduction,AR protein [1]; [6],92%
same,apoptotic cell death evidenced by PARP cleavage,C4-2B cells [2],more profound apoptotic cell death than ARi14
same,cell cycle arrest at the subG1/GO phase,C4-2B cells [3],induced cell cycle arrest
"ARi10: new analog of ARi8, myristylation sequence at the N-terminal (Myristoyl-YQSRDYYNFP)",AR protein levels,"AR protein [1]; myristylated peptides, 48 h",largely reduced
"EAAAYQSRDYYNFP [ARi14, decoy peptide derived from the AR N-terminal domain, amino acids 355-368; myristylated form used in b32]",AR protein level,AR protein [4],no apparent effect
same,cell death response / cell viability,LAPC-4 cells,no apparent effect
same,AR reduction,AR protein [1]; [6],78%
same,cell cycle arrest at the subG1/GO phase,C4-2B cells [3],induced cell cycle arrest
"EAAAYQS [ARi7, 7-mer fragment of ARi14, synthesized with an N-terminal myristylation signal]",impact on the AR protein level,AR protein [1]; [6],no impact
COc1ccc(/C=C/C(=O)/C=C(O)/C=C/c2ccc(OC)c(OC)c2)cc1OC [ASC-J9],AR protein degradation in prostate cancer cells,AR protein [5],induced AR protein degradation
